Starred links: 1 amine or outer side, 2 acyl side, 3 side chain; linkers in the order of their positions; H or OH if unused. Non-standard residues stand in square brackets, D forms with d. Residues, ends and D or L forms follow the SMILES beside them. *: point of attachment. Doxorubicin(3'-N) = COc1cccc2c1C(=O)c1c(O)c3c(c(O)c1C2=O)C[C@@](O)(C(=O)CO)C[C@@H]3O[C@H]1C[C@H](N*)[C@H](O)[C@H](C)O1; Hexanoyl(6-maleimido) = O=C1C=CC(=O)N1CCCCCC(=O)*; PABC = O=C(OCc1ccc(N[*:1])cc1)[*:2]
What was measured:
[1] = Plasma concentration-time curves of doxorubicin content after intravenous administration to monkeys; type: in vivo; conditions: Cynomolgus monkeys, molar equivalent to 1 mg/kg of doxorubicin
Method: The pharmacokinetic profiles of the maleimide-KGDEVD-PABC-doxorubicin (SEQ ID NO: 10) and AcKGDEVD-PABC-doxorubicin (SEQ ID NO: 32) conjugates were determined after intravenous administration to Cynomolgus monkeys at a dose of molar equivalent to 1 mg/kg of doxorubicin (FIG. 28). Blood samples were collected at 15, 30, 45, 60, 90 minutes and then 2, 3, 4, 6, 8, 12, 24, 48, 72, 96, 120, 144, 168 hours post-injection (500 μl each). The collected blood samples were stabilized immediately with sodium citrate and centrifuged for 15 min at 2000×g in a refrigerated centrifuge to separate the plasma. The plasma samples (200 al) were transferred to a 96-well black microplate and the intrinsic fluorescence of doxorubicin was read at Ex 485 nm/Em 590 nm. A standard was prepared in fresh plasma and the fluorescence was read as described above.

[2] = Plasma concentration-time curve of doxorubicin content after intravenous administration to rats; type: in vivo; conditions: Sprague-Dawley rats, molar equivalent to 1 mg/kg of doxorubicin
Method: The pharmacokinetic profile of the maleimide-KGDEVD-PABC-doxorubicin (SEQ ID NO: 10) and AcKGDEVD-PABC-doxorubicin (SEQ ID NO: 32) conjugates was determined after intravenous administration to Sprague-Dawley rats at a dose of molar equivalent to 1 mg/kg of doxorubicin (FIG. 25). Blood samples were collected at 5, 15, 30, 60, 90 minutes and then 2, 4, 8, 12, 24, 48, 72, 96, 144 hours post-injection (500 μl each). The collected blood samples were stabilized immediately with sodium citrate and centrifuged for 15 min at 2000×g in a refrigerated centrifuge to separated plasma. The plasma samples (200 μl) were transferred to a 96-well black microplate and the intrinsic fluorescence of doxorubicin was read at Ex 485 nm/Em 590 nm. A standard was prepared in fresh plasma and fluorescence was read as described above.

[3] = target: T1, recombinant human caspase-3 (Homo sapiens, UniProt P42574); test: HPLC monitored cleavage study by recombinant human caspase-3; type: biochemical; conditions: incubated with purified caspase-3, HPLC
T1 sequence (P42574 29-175 limits assumed): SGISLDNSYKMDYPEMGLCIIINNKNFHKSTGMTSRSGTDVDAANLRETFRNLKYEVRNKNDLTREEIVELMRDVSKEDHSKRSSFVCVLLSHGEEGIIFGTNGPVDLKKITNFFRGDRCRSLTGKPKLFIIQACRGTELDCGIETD
T1 sequence (P42574 176-277 limits assumed): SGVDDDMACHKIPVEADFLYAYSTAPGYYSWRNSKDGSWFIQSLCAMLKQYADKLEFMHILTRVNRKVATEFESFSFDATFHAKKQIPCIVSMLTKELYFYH
From the text: Example 21—HPLC Monitored Cleavage Studies of Human Serum Albumin-Bound Maleimide-KGDEVD-PABC-Doxorubicin (SEQ ID NO: 10) (HSA-KGDEVD-PABC-Doxorubicin (SEQ ID NO: 31)) by Recombinant Human Caspase-3

For `COc1cccc2c1C(=O)c1c(O)c3c(c(O)c1C2=O)C[C@@](O)(C(=O)CO)C[C@@H]3O[C@H]1C[C@H](NC(=O)OCc2ccc(NC(=O)[C@H](CC(=O)O)NC(=O)[C@@H](NC(=O)[C@H](CCC(=O)O)NC(=O)[C@H](CC(=O)O)NC(=O)CNC(=O)[C@H](CCCCN)NC(C)=O)C(C)C)cc2)[C@H](O)[C@H](C)O1` [AcKGDEVD-PABC-doxorubicin, Ac-Lys-Gly-Asp-Glu-Val-Asp-PABC-doxorubicin] (Ac-KGDEVD[PABC]-{Doxorubicin(3'-N)}), the “time until plasma concentration decreased below the detection limit (5 ng/ml)” value [1] was ≤ 6 h, the terminal half-life ([1]; plasma fluorescence) was 60 min and the “time until plasma concentration decreased below the detection limit (5 ng/ml)” value [2] was ≤ 4 h. The half-life ([2]; rat, in vivo, plasma fluorescence, read-out: terminal half-life) was 30 min.
With `COc1cccc2c1C(=O)c1c(O)c3c(c(O)c1C2=O)C[C@@](O)(C(=O)CO)C[C@@H]3O[C@H]1C[C@H](NC(=O)OCc2ccc(NC(=O)[C@H](CC(=O)O)NC(=O)[C@@H](NC(=O)[C@H](CCC(=O)O)NC(=O)[C@H](CC(=O)O)NC(=O)CNC(=O)[C@H](CCCCNC(=O)CCCCCN3C(=O)C=CC3=O)NC(C)=O)C(C)C)cc2)[C@H](O)[C@H](C)O1` [maleimide-KGDEVD-PABC-doxorubicin, Ac-Lys(EMC)-Gly-Asp-Glu-Val-Asp-PABC-doxorubicin] (Ac-K(Hexanoyl(6-maleimido))GDEVD[PABC]-{Doxorubicin(3'-N)}) the “time the plasma concentration was detectable after administration” value [1] was “more than 7 days” and the “time the conjugate lasted in plasma after administration” value [2] was “more than 6 days”.
For HSA-maleimide-KGDEVD-PABC-doxorubicin, the “time until free doxorubicin was completely liberated from the conjugate” value [3] was ≤ 1 h.

Reference: patent US10357572B2, “Prodrugs activated by caspase” (priority 2014, dated 2019)
